Results from patent publication US7399747B1, “Peptides carrying substances across the blood brain barrier” (SYNT:EM, priority 1998, dated 2008).
“Also recorded” adds a separate entry of the source. Blank lines part the entries; values can stand above or below the molecule they belong to. *1 amine or outer side, *2 acyl side, *3 side chain or, on linkers, in order; H or OH if unused. Where a SMILES comes first, the peptide text is derived from it. Where no end group is shown, it is not given here. The star is where a group is joined. Doxorubicin(3'-N) = COc1cccc2c1C(=O)c1c(O)c3c(c(O)c1C2=O)C[C@@](O)(C(=O)CO)C[C@@H]3O[C@H]1C[C@H](N*)[C@H](O)[C@H](C)O1; Suc = O=C(CCC(=O)[*:2])[*:1]

What was measured:
[1] = Capillary depletion after cerebral perfusion and rinsing (distribution volume Vd); type: in vivo, rat
Experimental: This method is used to measure the distribution of products between the cerebral parenchyma and endothelial cells, Triguero et al., 1990, J. Neurochem. 54, 1882-1888). After 60 seconds of perfusion, that may or may not be followed by 30 seconds rinsing, the right hemisphere is removed, its meninges and choroid plexus are removed, and it is then homogenized in 3.5 ml of Hepes buffer (10 mM of Hepes, 141 mM of NaCl, 4 mM of KCl, 1 mM of NaH2PO4, 2.8 mM of CaCl2, 1 mM of MgSO4 and 10 mM of D-glucose, pH=7.4). After grinding in the potter, 4 ml of solution containing 4% of Dextran (PM=76900) are added and the mix is stirred vigorously in order to obtain a […]. All these operations are carried out at 4° C. in less than 5 minutes. After taking a sample of the homogenate thus obtained, the homogenate is then put into the centrifuge for 15 minutes at 5400 g in order to separate the endothelial cells present in the base of the cerebral parenchyma that remained in the floating material. The results are expressed as distribution volumes in the floating material and the base.
This method measures the distribution of products between the cerebral parenchyma and endothelial cells. Capillary depletion is carried out after 60 seconds perfusion followed by 30 seconds rinsing. The distribution volumes (Vd) in endothelial cells and the cerebral parenchyma are expressed in microliters/g.

[2] = In situ cerebral perfusion, penetration into the brain (influx constant Kin); type: in vivo, rat
Experimental: The rats are perfused with the buffer containing free doxorubicin or compounds No. 1 or 2. The doxorubicin is radio-marked with carbon 14 in each product (specific activity=9.4 microCi/mg, Amersham, France). The products are perfused at a concentration of 0.33 microCi/ml or 0.035 mg/rat.
The heart is stopped by cutting the ventricles immediately before perfusion starts, in order to prevent reflux of the perfusate during the perfusion.
The brain is removed quickly after decapitation. The brain is dissected on a mirror into 8 regions, namely Hypothalamus (HY), frontal Cortex (CF), Mesencephale (MS), Occipital Cortex (CO), Parietal Cortex (CP), Thalamus (TH), Hippocampus (HP), Striatum (ST), which are placed in previously calibrated glass flasks and then weighed. These structures and 50 microliters of perfusate are digested for two hours in 1 ml of soluene at 60° C. A scintillating cocktail (10 ml, Pico-fluor, Packard) is added to each sample and the quantity of tracers contained in them is measured by double counting in liquid scintillation (Packard, Tricarb, 1900TR).
This study consisted of comparing penetration in the HEB of doxorubicin alone with doxorubicin using compounds numbers 1 and 2 as vectors. After 60 seconds perfusion in the buffer, the penetration of products was estimated using the influx constant or Kin in microl/sec/g. […]

HEB = assay: Tolerance to products: integrity of HEB by [3H]-sucrose distribution volume during in situ cerebral perfusion; settings: co-perfused with [3H]-sucrose
Text: This is a fast and sensitive method of evaluating the penetration of various compounds into the central nervous system (Takasato et al., 1984, Am. J. Physiol. 247, 484-493; Allen et al., 1997, Pharm Res. 14, 337-341). Two month old male Sprague-dawley rats (250-350 g. Iffa-Credo; l'Arbresle, France) are anaesthetised. After exposure of the common carotid, the right external carotid artery is bound at the junction with the internal carotid and the common carotid is bound between the heart and the site at which the catheter is installed (polyethylene catheter, ID=0.76). This catheter, previously filled with a solution of heparin (100 units/ml) is inserted into the common carotid. Rats are perfused with the perfusion buffer (128 mM NaCl, 24 mM NaHCO3, 4.2 mM KCl, 2.4 mM NaH2PO4, 1.5 mM CaCl2, 0.9 mM MgSO4, and 9 mM D-glucose). This buffer is filtered and then is bubbled using a mix containing 95% O2/5% CO2 in order to keep the pH close to 7.4 and to supply oxygen to the brain during the perfusion.
It is estimated that this volume must not exceed […]. For larger volumes, it is concluded that the permeability of HEB is abnormal.
Doxorubicin, compounds numbers 1 and 2 were injected in the presence of sucrose and the integrity of the HEB is measured.

[3] = Intravenous injection in NMRI-nude mice, radioactivity in the brain; settings: for Product quantity in brain: i.v. 2.5 mg DXR base/kg
Experimental: NMRI-nude mice are injected intravenously with compound No. 1 or doxorubicin alone at a dose of 2.5 mg/kg (equivalent in doxorubicin). The doxorubicin is marked with carbon 14 (about 0.5 microCi is injected per mouse). The mice are sacrificed after 1, 5, 15, 30, 60, 180, 480 and 1360 minutes. The organs are then removed and counted. The quantity of radioactivity in each organ is then expressed as the quantity of product per gram of organ. In this study, we used five mice for each period of time.
After intravenous injection of compound No. 1, nude mice were sacrificed at different times and the total radioactivity in the brain was counted and expressed as a quantity of product per gram of brain.

[4] = Intravenous injection in CD1 mice, whole-body autoradiography, brain; settings: i.v. 2 mg DXR base/kg
Experimental: In the case of compound No. 2, the CD1 mouse is injected intravenously with compound No. 2 or with free doxorubicin at a dose of 2 mg/kg (equivalent in doxorubicin). Doxorubicin is marked with carbon 14 (about 3 microCi is injected per mouse). The mouse is sacrificed after 15 minutes, 2 hours and 8 hours, and the product quantity in each organ is analysed using the “Whole-body autoradiography” technique. The quantity of radioactivity in each organ is then expressed as a quantity of product per gram of organ. We used one mouse per group in this experiment.
The total radioactivity in the brain is analysed using the “Whole body autoradiography” method and is expressed as a product quantity per gram of brain.

[5] = for Reduction of the influx constant after rinsing: 60 s perfusion then 30 s rinsing with buffer without tracer
Experimental: For rats on which the rinsing step is carried out, the catheter is inserted into the common carotid as described above, and is then connected to a 4-way valve (opposite passages) (Hamilton, USA) connected to two syringes; one containing the radio-marked tracer (syringe A) and the other the buffer alone (syringe B). Once the catheter is in position and the connections have been made correctly, the thoracic cage of the rat is opened and the heart is cut. The contents of syringe A are then immediately perfused at a rate of 10 ml/min. After 60 seconds, the contents of syringe B are injected in turn at the same rate. The rat is decapitated after 30 seconds of rinsing.
Rinsing of cerebral capillaries by perfusion of the buffer without tracer for 30 seconds eliminates the fraction of the product being studied adhering to the luminal membrane of endothelial cells, if any.

[6] = Hot Plate model (latency time); type: in vivo, mouse; settings: for Effect on latency time / analgesic activity: i.v. injection, latency measured 0 to 90 minutes; for Latency time: 2 mg/Kg i.v. (dalargine equivalent), 5 minutes after injection
Experimental: For the purposes of this study, the biological activity of dalargine alone was compared with the biological activity of dalargine vectorised with SynB1. Consequently, the “Hot Plate” model in the mouse was used. In this model, the mouse is placed on a hot plate and the time that the mouse takes to react to heat is measured as the “latency time”.
2 mg/Kg of each product was injected intravenously into the mouse (the dose corresponding to the quantity of dalargine). After times varying from 0 to 90 minutes, the latency time was measured. […] The latency time is constant. […] For example 5 minutes after injection, the latency time of vectorised dalargine is 22.75 seconds, whereas it is only 7.6 seconds for dalargine alone.

[7] = 60 seconds perfusion followed by 30 seconds rinsing

Molecule: COc1cccc2c1C(=O)c1c(O)c3c(c(O)c1C2=O)C[C@@](O)(C(=O)CO)C[C@@H]3O[C@H]1C[C@H](NC(=O)CCC(=O)N[C@@H](CCCNC(=N)N)C(=O)N[C@@H](CCCNC(=N)N)C(=O)N[C@@H](CC(C)C)C(=O)N[C@@H](CO)C(=O)N[C@@H](Cc2ccc(O)cc2)C(=O)N[C@@H](CO)C(=O)N[C@@H](CCCNC(=N)N)C(=O)N[C@@H](CCCNC(=N)N)C(=O)N[C@@H](CCCNC(=N)N)C(=O)N[C@@H](Cc2ccccc2)C(=O)O)[C@H](O)[C@H](C)O1 [No. 5, Doxo-CO—(CH2)2—CO-RRLSYSRRRF] ({Doxorubicin(3'-N)-Suc}-RRLSYSRRRF-OH)
Penetration in the cerebral parenchyma compared with free doxorubicin [1, 7]: 50 times | Vd in the cerebral parenchyma [1, 7]: 98.32 µL/g | Increase of transfer into the brain (Kin) compared with doxorubicin alone ([2]; 60 seconds perfusion in the buffer): five times

Vd in the cerebral parenchyma ([1]; 30 seconds perfusion followed by 30 seconds rinsing): 3.94 µL/g
Molecule: CC1(C)S[C@@H]2[C@H](NC(=O)Cc3ccccc3)C(=O)N2[C@H]1C(=O)O [benzylpenicillin, Benzylpenicillin, reference compound]

Vd in the cerebral parenchyma [1, 7]: 1.75 µL/g | Product quantity in brain ([3]; 1 min): 0.14 microg/g of brain | Product quantity in brain ([3]; 5 min): 0.05 microg/g of brain | Product quantity in brain ([3]; 15 min): 0.04 microg/g of brain | Product quantity in brain ([3]; 30 min): 0.05 microg/g of brain | Product quantity in brain ([3]; 60 min): 0.04 microg/g of brain | Product quantity in brain ([3]; 180 min): 0.03 microg/g of brain | Product quantity in brain ([3]; 480 min): 0.04 microg/g of brain | Product quantity in brain ([3]; 1360 min): 0.01 microg/g of brain | Product quantity in brain ([4]; 15 min): 1.24 ug/g of brain | Product quantity in brain ([4]; 120 min): 0.98 ug/g of brain | Product quantity in brain ([4]; 480 min): 0.67 ug/g of brain | Reduction of the influx constant after rinsing [5]: about 25%
Molecule: COc1cccc2c1C(=O)c1c(O)c3c(c(O)c1C2=O)C[C@@](O)(C(=O)CO)C[C@@H]3O[C@H]1C[C@H](N)[C@H](O)[C@H](C)O1 [doxorubicin, Doxorubicin, reference compound]
State of the HEB (HEB; perfused dose 0.07 mg): Integral

Molecule: Doxo-CO—(CH2)2—CO-RGGRLSYSRRRFSTSTGR ({doxorubicin-Suc}-RGGRLSYSRRRFSTSTGR) [Compound No. 1]
Vd in the cerebral parenchyma [1, 7]: 28.5 µL/g | Fraction of compound found in the cerebral parenchyma ([1]; 1 minute perfusion followed by 30 seconds rinsing): About 60% | State of the HEB (HEB; perfused dose 0.05 mg): Integral | State of the HEB (HEB; perfused dose 0.8 mg): does not open the HEB abnormally; also recorded: Integral | Ratio of compound No. 1/doxorubicin (brain quantity) ([3]; 1 min after i.v. injection): 3.4 | Ratio of compound No. 1/doxorubicin (brain quantity) ([3]; 5 min after i.v. injection): 3.6 | Ratio of compound No. 1/doxorubicin (brain quantity) ([3]; 15 min after i.v. injection): 10.5 | Ratio of compound No. 1/doxorubicin (brain quantity) ([3]; 30 min after i.v. injection): 5 | Ratio of compound No. 1/doxorubicin (brain quantity) ([3]; 60 min after i.v. injection): 3 | Ratio of compound No. 1/doxorubicin (brain quantity) ([3]; 180 min after i.v. injection): 1 | Product quantity in brain ([3]; 1 min): 0.48 microg/g of brain | Product quantity in brain ([3]; 5 min): 0.18 microg/g of brain | Product quantity in brain ([3]; 15 min): 0.42 microg/g of brain | Product quantity in brain ([3]; 30 min): 0.25 microg/g of brain | Product quantity in brain ([3]; 60 min): 0.12 microg/g of brain | Product quantity in brain ([3]; 180 min): 0.03 microg/g of brain | Product quantity in brain ([3]; 480 min): 0.02 microg/g of brain | Product quantity in brain ([3]; 1360 min): 0.01 microg/g of brain | Increase of penetration after rinsing compared with free doxorubicin (factor) ([5]; 60 s perfusion then 30 s rinsing): 4 | Reduction of the influx constant after rinsing [5]: 45%

Molecule: RGGRLSYSRRRFSTSTGR (PEPTIDE (1)..(18) Syn B1) [SynB1]
Effect on latency time / analgesic activity [6]: no analgesic activity

Molecule: Y-(D)A-GFLR [dalargine, reference compound]
Latency time [6]: 7.6 s | Effect on latency time / analgesic activity [6]: no effect was observed

Molecule: Y-(D)A-GFLR-S-S-RGGRLSYSRRRFSTSTGR [dal-SynB1]
Latency time [6]: 22.75 s | Effect on latency time / analgesic activity [6]: an increase in the latency time is observed | Transfer into the brain (Kin) compared with dalargine alone ([2]; 60 seconds perfusion in the buffer (FIG. 7)): considerably increases its transfer into the brain
